From patent publication US20040091453, “Pancreatic langerhans beta cell proliferation promoter and apoptosis inhibitor, and screening of candidate compounds for the e drugs” (published 2004)

Target: PARP (poly(ADP-ribose) polymerase), purified (Homo sapiens, UniProt P09874 P09874:2-1014)
Assay: EMSA; 10 ng PARP; retarded band at position different from nuclear extract complex; room temperature, 2 mM MgCl2, 50 mM NaCl
Details: tags: Trevigen Inc; label: 32P
Experimental: Biophys. Acta, 1219, 241-243) and stored at −80° C. until use. GMSA was performed by the method of Garabedian (Garabedian, M. J. et al. Analysis of protein—DNA interactions in Gene Transcription: A practical approach (Hamesm, B. D., and Higgins, S. J. eds.), pp. 243-293, IRL Press, Oxford (1993)). The nuclear extract (10 μg) was incubated in a final volume of 20 μl of buffer containing 20 mM Tris-HCl (pH 7.9), 2 mM MgCl₂, 50 mM NaCl, 2 mM EDTA, 10% glycerol, 0.1% Nonidet P-40, 1 mM DTT, 50 μg/ml bovine serum albumin and 1 μg of poly(dI-dC). After incubation for 10 min at room temperature, 2.5 pmol of double-stranded DNA, previously labeled by an exchange reaction using MEGALABEL™ (Takara Shuzo) and [γ-³²P]ATP (Amersham Pharmacia Biotech), were added and incubated for 30 min at room temperature, then the binding reactions were resolved on pre-run 6% acrylamide gel. When competition experiments were conducted in the presence of 100-fold molar excess of cold probe, an unlabeled competitor was added with the labeled probe. In the supershift assay, 2 μg of anti-Sp1, -Sp2, -Sp3 or -Sp4 antibody (Santa Cruz) were added prior to the addition of the ³²P-probe. […] DNA was detected by immunoblot using an ECL 3′-oligolabelling and detection system (Amersham Pharmacia Biotech). […]

Chain of PARP (poly(ADP-ribose) polymerase), purified (P09874 2-1014, one chain of several): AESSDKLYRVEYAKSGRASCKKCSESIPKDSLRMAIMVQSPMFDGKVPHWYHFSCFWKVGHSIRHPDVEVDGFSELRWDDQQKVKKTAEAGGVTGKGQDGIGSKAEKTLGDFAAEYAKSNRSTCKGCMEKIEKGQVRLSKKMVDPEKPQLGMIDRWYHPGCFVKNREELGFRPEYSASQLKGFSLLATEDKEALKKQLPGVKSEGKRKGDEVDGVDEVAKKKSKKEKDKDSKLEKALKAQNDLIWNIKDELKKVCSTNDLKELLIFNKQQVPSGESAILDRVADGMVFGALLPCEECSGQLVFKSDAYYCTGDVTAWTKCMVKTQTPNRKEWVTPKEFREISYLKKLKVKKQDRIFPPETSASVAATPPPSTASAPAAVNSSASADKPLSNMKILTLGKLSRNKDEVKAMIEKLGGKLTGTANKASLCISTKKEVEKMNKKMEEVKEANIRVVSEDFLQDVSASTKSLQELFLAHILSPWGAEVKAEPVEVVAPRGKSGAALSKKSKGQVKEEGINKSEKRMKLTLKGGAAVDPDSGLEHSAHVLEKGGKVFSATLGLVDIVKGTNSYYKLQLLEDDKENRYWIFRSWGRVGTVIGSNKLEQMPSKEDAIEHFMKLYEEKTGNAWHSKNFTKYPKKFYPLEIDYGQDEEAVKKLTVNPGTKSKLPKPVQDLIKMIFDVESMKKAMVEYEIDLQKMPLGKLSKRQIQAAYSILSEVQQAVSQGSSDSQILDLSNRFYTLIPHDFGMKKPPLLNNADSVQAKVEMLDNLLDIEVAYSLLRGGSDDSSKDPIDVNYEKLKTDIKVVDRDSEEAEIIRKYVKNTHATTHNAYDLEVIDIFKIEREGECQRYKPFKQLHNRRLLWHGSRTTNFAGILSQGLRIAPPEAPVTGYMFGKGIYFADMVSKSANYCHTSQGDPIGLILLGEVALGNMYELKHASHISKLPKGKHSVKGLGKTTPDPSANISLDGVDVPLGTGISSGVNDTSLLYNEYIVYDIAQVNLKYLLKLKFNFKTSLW

B1: Probe 1 (rat Reg -86 to -65) (dsDNA)
DNA 1: TTCCTTGCCCCTCCCATTTTTC
DNA 2: GAAAAATGGGAGGGGCAAGGAA
binding result: binds
